B1: DNA-directed RNA polymerase II subunit rpb7 (Schizosaccharomyces pombe (strain ATCC 38366 / 972)), O14459 (parent)
chain: MPFFLKELSLTISLHPSYFGPRMQDYLKAKLLADVEGTCSGQYGYIICVLDSNTIDIDKGRVVPGQGFAEFEVKYRAVLWRPFRGEVVDAIVTTVNKMGFFANIGPLNVFVSSHLVPPDMKFDPTANPPNYSGEDQVIEKGSNVRLKIVGTRTDATEIFAIATMKEDYLGVL
partner: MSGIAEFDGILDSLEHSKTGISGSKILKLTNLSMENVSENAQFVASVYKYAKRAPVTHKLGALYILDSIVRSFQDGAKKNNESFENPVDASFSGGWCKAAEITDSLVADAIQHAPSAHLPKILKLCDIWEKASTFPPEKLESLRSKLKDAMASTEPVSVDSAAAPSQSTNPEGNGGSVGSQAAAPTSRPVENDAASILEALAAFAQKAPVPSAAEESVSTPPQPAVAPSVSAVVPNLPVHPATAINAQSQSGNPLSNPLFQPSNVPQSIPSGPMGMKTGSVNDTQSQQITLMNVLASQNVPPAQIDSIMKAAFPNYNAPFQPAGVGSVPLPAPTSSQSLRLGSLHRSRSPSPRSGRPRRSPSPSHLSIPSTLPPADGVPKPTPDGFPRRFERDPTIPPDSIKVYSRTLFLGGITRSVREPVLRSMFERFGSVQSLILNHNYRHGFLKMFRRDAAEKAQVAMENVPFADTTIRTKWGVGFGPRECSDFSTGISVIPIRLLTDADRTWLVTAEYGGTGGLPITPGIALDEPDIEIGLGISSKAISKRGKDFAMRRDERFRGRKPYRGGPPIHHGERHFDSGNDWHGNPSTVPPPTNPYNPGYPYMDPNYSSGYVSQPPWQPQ

Variants of B1 are the subject of the assay. The conditions noted are these: with seb1_schpo seb1, Q9UTE3.
Take E166R;D167A: the “effect of a mutation on the interaction” value is “disrupting interaction”.

The record behind these values is IntAct's records for PubMed 12907709.
